Source: article doi:10.1101/282715 (bioRxiv, 2018)

Target: the molecule itself
Experiment: cryo-EM structure

B1: mouse TRPC4 (residues a.a. 1-758, excluding a.a. 759-974) (natural protein, UniProt Q9QUQ5 1-758, looked up)
chain: MAQFYYKRNVNAPYRDRIPLRIVRAESELSPSEKAYLNAVEKGDYASVKKSLEEAEIYFKININCIDPLGRTALLIAIENENLELIELLLSFNVYVGDALLHAIRKEVVGAVELLLNHKKPSGEKQVPPILLDKQFSEFTPDITPIILAAHTNNYEIIKLLVQKGVSVPRPHEVRCNCVECVSSSDVDSLRHSRSRLNIYKALASPSLIALSSEDPFLTAFQLSWELQELSKVENEFKSEYEELSRQCKQFAKDLLDQTRSSRELEIILNYRDDNSLIEEQSGNDLARLKLAIKYRQKEFVAQPNCQQLLASRWYDEFPGWRRRHWAVKMVTCFIIGLLFPVFSVCYLIAPKSPLGLFIRKPFIKFICHTASYLTFLFLLLLASQHIDRSDLNRQGPPPTIVEWMILPWVLGFIWGEIKQMWDGGLQDYIHDWWNLMDFVMNSLYLATISLKIVAFVKYSALNPRESWDMWHPTLVAEALFAIANIFSSLRLISLFTANSHLGPLQISLGRMLLDILKFLFIYCLVLLAFANGLNQLYFYYEETKGLSCKGIRCEKQNNAFSTLFETLQSLFWSIFGLINLYVTNVKAQHEFTEFVGATMFGTYNVISLVVLLNMLIAMMNNSYQLIADHADIEWKFARTKLWMSYFEEGGTLPTPFNVIPSPKSLWYLVKWIWTHLCKKKMRRKPESFGTIGRRAADNLRRHHQYQEVMRNLVKRYVAAMIREAKTEEGLTEENVKELKQDISSFRFEVLGLLRGSK
stoichiometry N: 4
